According to FireProtDB (doi:10.1016/0022-2836(81)90253-9):

Conditions: Sus scrofa, Thermal, DSC, reversible: yes, whole UniProt chain shown
[1] = pH 6.5, sodium phosphate 5 mM, NaCl 100 mM
[2] = pH 7.1, sodium phosphate 5 mM, NaCl 100 mM

B1: Gastricsin wild type, P30879 (protein)
chain: SVIKVPLKKLKSIRQAMKEKGLLEEFLKTHKYDPAQRYRIGDISVALEPMAYLEAAYFGEISIGTPPQNFLVL
In the case of B1, the Tm (pH 6, sodium cacodylate 5 mM) is reported as 66 °C, the “unfolding enthalpy (calorimetric)” value (pH 6, sodium cacodylate 5 mM) is reported as 271 kcal/mol and the “unfolding enthalpy (van 't Hoff)” value (pH 6, sodium cacodylate 5 mM) is reported as 174 kcal/mol. For the same protein, the Tm [1] was 64.5 °C, the “unfolding enthalpy (calorimetric)” value [1] was 256 kcal/mol and the “unfolding enthalpy (van 't Hoff)” value [1] was 131 kcal/mol. For the same protein, the Tm (pH 6.5, sodium phosphate 5 mM) was 61 °C, the “unfolding enthalpy (calorimetric)” value (pH 6.5, sodium phosphate 5 mM) was 240 kcal/mol and the “unfolding enthalpy (van 't Hoff)” value (pH 6.5, sodium phosphate 5 mM) was 125 kcal/mol. The Tm [2] was 56.3 °C, the “unfolding enthalpy (calorimetric)” value [2] was 202 kcal/mol and the “unfolding enthalpy (van 't Hoff)” value [2] was 143 kcal/mol.
